According to paper PMC9482650, “Quantitative fragmentomics allow affinity mapping of interactomes” (Nature Communications, 2022):

T1: GRIP1_2, Q9Y3R0
T1 sequence (Q9Y3R0 145-248, limits assumed, looked up): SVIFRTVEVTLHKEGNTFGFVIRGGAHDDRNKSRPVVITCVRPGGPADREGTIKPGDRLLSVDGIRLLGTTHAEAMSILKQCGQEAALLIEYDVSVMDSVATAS

T2: LNX2_3, Q8N448
T2 sequence (Q8N448 463-564, limits assumed, looked up): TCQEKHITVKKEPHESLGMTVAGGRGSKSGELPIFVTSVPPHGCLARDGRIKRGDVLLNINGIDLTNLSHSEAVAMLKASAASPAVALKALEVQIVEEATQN

T3: PTPN13_1, Q12923
T3 sequence (Q12923 1088-1188, limits assumed, looked up): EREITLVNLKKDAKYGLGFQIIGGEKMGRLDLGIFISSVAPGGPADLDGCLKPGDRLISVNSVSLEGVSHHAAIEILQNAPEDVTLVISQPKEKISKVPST

T4: RAPGEF6, Q8TEU7
T4 sequence (Q8TEU7 525-625, limits assumed, looked up): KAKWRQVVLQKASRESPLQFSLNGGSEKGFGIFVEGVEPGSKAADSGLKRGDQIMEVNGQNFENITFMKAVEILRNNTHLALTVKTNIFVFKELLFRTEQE

T5: APBA1_1, Q02410
T5 sequence (Q02410 651-752, limits assumed, looked up): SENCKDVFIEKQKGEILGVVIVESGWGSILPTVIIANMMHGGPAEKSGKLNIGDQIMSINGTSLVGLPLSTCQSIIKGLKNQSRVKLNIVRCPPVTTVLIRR

T6: TIAM2, Q8IVF5
T6 sequence (Q8IVF5 885-986, limits assumed, looked up): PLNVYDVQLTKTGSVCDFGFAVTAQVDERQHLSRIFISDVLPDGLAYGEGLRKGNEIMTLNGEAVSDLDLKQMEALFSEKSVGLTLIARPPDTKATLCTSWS

T7: MPDZ_12, O75970
T7 sequence (O75970 1857-1958, limits assumed, looked up): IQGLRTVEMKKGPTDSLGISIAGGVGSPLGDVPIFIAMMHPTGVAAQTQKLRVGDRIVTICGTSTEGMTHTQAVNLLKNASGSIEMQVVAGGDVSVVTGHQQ

T8: MPDZ_5, O75970
T8 sequence (O75970 695-796, limits assumed, looked up): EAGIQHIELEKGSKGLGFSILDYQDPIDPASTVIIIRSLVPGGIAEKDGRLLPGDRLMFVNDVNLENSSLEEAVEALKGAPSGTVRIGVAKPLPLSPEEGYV

T9: RHPN1, Q8TCX5
T9 sequence (Q8TCX5 508-602, limits assumed, looked up): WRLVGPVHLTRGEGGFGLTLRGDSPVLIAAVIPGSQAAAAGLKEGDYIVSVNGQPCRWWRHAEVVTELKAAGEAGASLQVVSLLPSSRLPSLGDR

T10: PDZD2_2, O15018
T10 sequence (O15018 329-429, limits assumed, looked up): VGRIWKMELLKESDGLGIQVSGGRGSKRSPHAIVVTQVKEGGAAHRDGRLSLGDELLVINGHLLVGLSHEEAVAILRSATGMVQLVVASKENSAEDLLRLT

B1: CDK18, Q07002 (peptide)
chain: RGKNRRQSIF
B2: CLDN8, P56748 (peptide)
chain: PSVYSRSQYV
B3: WWTR1, Q9GZV5 (peptide)
chain: NKSEPFLTWL

biological target: DLG4_3, P78352; assay: holdup assay; parameters: key: below the threshold = too weak to quantify, mostly under pKd 3.1 to 4; conditions: plain residues with an end cap or a label only (N-terminal biotin on a linker: ado-ado)
Sequence (P78352 306-403): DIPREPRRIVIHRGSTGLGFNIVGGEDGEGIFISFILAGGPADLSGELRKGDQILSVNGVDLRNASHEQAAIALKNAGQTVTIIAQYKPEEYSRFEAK

pKd	Binder
3.7	B1
below the threshold	B2
below the threshold	B3

biological target: T1, GRIP1_2, Q9Y3R0; assay: holdup assay; parameters: key: below the threshold = too weak to quantify, mostly under pKd 3.1 to 4; conditions: plain residues with an end cap or a label only (N-terminal biotin on a linker: ado-ado)

pKd	Binder
below the threshold	B1
below the threshold	B2
below the threshold	B3

biological target: T2, LNX2_3, Q8N448; assay: holdup assay; parameters: key: below the threshold = too weak to quantify, mostly under pKd 3.1 to 4; conditions: plain residues with an end cap or a label only (N-terminal biotin on a linker: ado-ado)

pKd	Binder
below the threshold	B1
below the threshold	B2
below the threshold	B3

biological target: NHERF4_1, Q86UT5-2; assay: holdup assay; parameters: key: below the threshold = too weak to quantify, mostly under pKd 3.1 to 4; conditions: plain residues with an end cap or a label only (N-terminal biotin on a linker: ado-ado)
Sequence (Q86UT5 other isoform, or with tags, fused parts or gaps): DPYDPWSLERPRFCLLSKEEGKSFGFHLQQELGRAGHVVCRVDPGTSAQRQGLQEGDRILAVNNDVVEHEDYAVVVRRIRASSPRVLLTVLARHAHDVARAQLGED

pKd	Binder
3.87	B1
4.03	B2
4.46	B3

biological target: SNX27, Q96L92; assay: holdup assay; parameters: key: below the threshold = too weak to quantify, mostly under pKd 3.1 to 4; conditions: plain residues with an end cap or a label only (N-terminal biotin on a linker: ado-ado)

pKd	Binder
below the threshold	B1
3.75	B2
5.02	B3

biological target: T3, PTPN13_1, Q12923; assay: holdup assay; parameters: key: below the threshold = too weak to quantify, mostly under pKd 3.1 to 4; conditions: plain residues with an end cap or a label only (N-terminal biotin on a linker: ado-ado)

pKd	Binder
below the threshold	B1
below the threshold	B2
3.66	B3

biological target: DLG4_1, P78352; assay: holdup assay; parameters: key: below the threshold = too weak to quantify, mostly under pKd 3.1 to 4; conditions: plain residues with an end cap or a label only (N-terminal biotin on a linker: ado-ado)
Sequence (P78352 62-152): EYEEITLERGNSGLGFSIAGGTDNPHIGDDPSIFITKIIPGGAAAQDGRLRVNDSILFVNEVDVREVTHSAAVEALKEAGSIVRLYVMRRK

pKd	Binder
below the threshold	B1
below the threshold	B2
3.49	B3

biological target: T4, RAPGEF6, Q8TEU7; assay: holdup assay; parameters: key: below the threshold = too weak to quantify, mostly under pKd 3.1 to 4; conditions: plain residues with an end cap or a label only (N-terminal biotin on a linker: ado-ado)

pKd	Binder
3.67	B1
below the threshold	B2
below the threshold	B3

biological target: T5, APBA1_1, Q02410; assay: holdup assay; parameters: key: below the threshold = too weak to quantify, mostly under pKd 3.1 to 4; conditions: plain residues with an end cap or a label only (N-terminal biotin on a linker: ado-ado)

pKd	Binder
below the threshold	B1
below the threshold	B2
4.11	B3

biological target: GRIP2_7, Q9C0E4; assay: holdup assay; parameters: key: below the threshold = too weak to quantify, mostly under pKd 3.1 to 4; conditions: plain residues with an end cap or a label only (N-terminal biotin on a linker: ado-ado)
Sequence (Q9C0E4 934-1023): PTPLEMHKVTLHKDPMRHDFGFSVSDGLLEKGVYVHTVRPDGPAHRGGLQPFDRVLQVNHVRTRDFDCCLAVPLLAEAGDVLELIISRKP

pKd	Binder
below the threshold	B1
3.51	B2
4.21	B3

biological target: LNX1_2, Q8TBB1; assay: holdup assay; parameters: key: below the threshold = too weak to quantify, mostly under pKd 3.1 to 4; conditions: plain residues with an end cap or a label only (N-terminal biotin on a linker: ado-ado)
Sequence (Q8TBB1 371-470): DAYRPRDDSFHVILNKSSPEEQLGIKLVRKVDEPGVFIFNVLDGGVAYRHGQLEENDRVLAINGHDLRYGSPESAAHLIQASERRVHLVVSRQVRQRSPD

pKd	Binder
below the threshold	B1
3.7	B2
below the threshold	B3

biological target: FRMPD3, Q5JV73; assay: holdup assay; parameters: key: below the threshold = too weak to quantify, mostly under pKd 3.1 to 4; conditions: plain residues with an end cap or a label only (N-terminal biotin on a linker: ado-ado)
Sequence (Q5JV73 12-100): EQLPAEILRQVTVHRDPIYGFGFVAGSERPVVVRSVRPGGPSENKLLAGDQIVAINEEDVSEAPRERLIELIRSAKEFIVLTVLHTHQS

pKd	Binder
below the threshold	B1
below the threshold	B2
4.26	B3

biological target: PARD3_3, Q8TEW0; assay: holdup assay; parameters: key: below the threshold = too weak to quantify, mostly under pKd 3.1 to 4; conditions: plain residues with an end cap or a label only (N-terminal biotin on a linker: ado-ado)
Sequence (Q8TEW0 582-685): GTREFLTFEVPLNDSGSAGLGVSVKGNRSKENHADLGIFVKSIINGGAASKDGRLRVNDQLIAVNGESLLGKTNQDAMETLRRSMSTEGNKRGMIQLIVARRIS

pKd	Binder
below the threshold	B1
below the threshold	B2
4.78	B3

biological target: LAP2, Q96RT1; assay: holdup assay; parameters: key: below the threshold = too weak to quantify, mostly under pKd 3.1 to 4; conditions: plain residues with an end cap or a label only (N-terminal biotin on a linker: ado-ado)
Sequence (Q96RT1 other isoform, or with tags, fused parts or gaps): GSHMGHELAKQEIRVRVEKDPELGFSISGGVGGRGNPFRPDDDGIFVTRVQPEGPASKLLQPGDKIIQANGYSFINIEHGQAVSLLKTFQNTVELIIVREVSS

pKd	Binder
3.74	B1
below the threshold	B2
4.6	B3

biological target: MAST2, Q6P0Q8; assay: holdup assay; parameters: key: below the threshold = too weak to quantify, mostly under pKd 3.1 to 4; conditions: plain residues with an end cap or a label only (N-terminal biotin on a linker: ado-ado)
Sequence (Q6P0Q8 1099-1202): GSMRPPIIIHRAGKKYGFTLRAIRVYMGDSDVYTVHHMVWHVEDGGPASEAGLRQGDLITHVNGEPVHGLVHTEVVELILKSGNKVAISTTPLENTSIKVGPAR

pKd	Binder
4.34	B1
below the threshold	B2
5.65	B3

biological target: Inadl_1, Q8NI35; assay: holdup assay; parameters: key: below the threshold = too weak to quantify, mostly under pKd 3.1 to 4; conditions: plain residues with an end cap or a label only (N-terminal biotin on a linker: ado-ado)
Sequence (Q8NI35 113-229): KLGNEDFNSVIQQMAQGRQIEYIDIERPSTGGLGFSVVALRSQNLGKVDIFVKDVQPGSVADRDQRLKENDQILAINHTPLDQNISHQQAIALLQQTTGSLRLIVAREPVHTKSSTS

pKd	Binder
below the threshold	B1
below the threshold	B2
4.52	B3

biological target: T6, TIAM2, Q8IVF5; assay: holdup assay; parameters: key: below the threshold = too weak to quantify, mostly under pKd 3.1 to 4; conditions: plain residues with an end cap or a label only (N-terminal biotin on a linker: ado-ado)

pKd	Binder
below the threshold	B1
4.1	B2
3.65	B3

biological target: FRMPD2_1, Q68DX3; assay: holdup assay; parameters: key: below the threshold = too weak to quantify, mostly under pKd 3.1 to 4; conditions: plain residues with an end cap or a label only (N-terminal biotin on a linker: ado-ado)
Sequence (Q68DX3 770-861): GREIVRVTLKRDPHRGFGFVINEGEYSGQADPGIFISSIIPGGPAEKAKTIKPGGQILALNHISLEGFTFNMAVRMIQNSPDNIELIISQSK

pKd	Binder
3.5	B1
4.36	B2
below the threshold	B3

biological target: T7, MPDZ_12, O75970; assay: holdup assay; parameters: key: below the threshold = too weak to quantify, mostly under pKd 3.1 to 4; conditions: plain residues with an end cap or a label only (N-terminal biotin on a linker: ado-ado)

pKd	Binder
3.58	B1
below the threshold	B2
4.9	B3

biological target: T8, MPDZ_5, O75970; assay: holdup assay; parameters: key: below the threshold = too weak to quantify, mostly under pKd 3.1 to 4; conditions: plain residues with an end cap or a label only (N-terminal biotin on a linker: ado-ado)

pKd	Binder
below the threshold	B1
4.18	B2
below the threshold	B3

biological target: MAGI2_2, Q86UL8; assay: holdup assay; parameters: key: below the threshold = too weak to quantify, mostly under pKd 3.1 to 4; conditions: plain residues with an end cap or a label only (N-terminal biotin on a linker: ado-ado)
Sequence (Q86UL8 410-522): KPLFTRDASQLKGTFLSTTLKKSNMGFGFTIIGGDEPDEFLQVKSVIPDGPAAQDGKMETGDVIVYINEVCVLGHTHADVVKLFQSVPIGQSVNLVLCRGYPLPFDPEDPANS

pKd	Binder
below the threshold	B1
below the threshold	B2
3.57	B3

biological target: GRIP2_3, Q9C0E4; assay: holdup assay; parameters: key: below the threshold = too weak to quantify, mostly under pKd 3.1 to 4; conditions: plain residues with an end cap or a label only (N-terminal biotin on a linker: ado-ado)
Sequence (Q9C0E4 238-339): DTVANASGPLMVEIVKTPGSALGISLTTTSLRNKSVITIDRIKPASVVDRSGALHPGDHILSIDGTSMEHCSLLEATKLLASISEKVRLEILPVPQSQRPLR

pKd	Binder
below the threshold	B1
below the threshold	B2
below the threshold	B3

biological target: NOS1, P29475; assay: holdup assay; parameters: key: below the threshold = too weak to quantify, mostly under pKd 3.1 to 4; conditions: plain residues with an end cap or a label only (N-terminal biotin on a linker: ado-ado)
Sequence (P29475 9-101): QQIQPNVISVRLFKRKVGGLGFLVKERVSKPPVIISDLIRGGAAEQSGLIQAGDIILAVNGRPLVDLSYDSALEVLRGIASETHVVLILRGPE

pKd	Binder
3.75	B1
3.99	B2
4.05	B3

biological target: DLG1_1, Q12959; assay: holdup assay; parameters: key: below the threshold = too weak to quantify, mostly under pKd 3.1 to 4; conditions: plain residues with an end cap or a label only (N-terminal biotin on a linker: ado-ado)

pKd	Binder
below the threshold	B1
below the threshold	B2
below the threshold	B3

biological target: DLG2_3, Q15700; assay: holdup assay; parameters: key: below the threshold = too weak to quantify, mostly under pKd 3.1 to 4; conditions: plain residues with an end cap or a label only (N-terminal biotin on a linker: ado-ado)

pKd	Binder
4.11	B1
below the threshold	B2
below the threshold	B3

biological target: T9, RHPN1, Q8TCX5; assay: holdup assay; parameters: key: below the threshold = too weak to quantify, mostly under pKd 3.1 to 4; conditions: plain residues with an end cap or a label only (N-terminal biotin on a linker: ado-ado)

pKd	Binder
3.58	B1
below the threshold	B2
4.64	B3

biological target: T10, PDZD2_2, O15018; assay: holdup assay; parameters: key: below the threshold = too weak to quantify, mostly under pKd 3.1 to 4; conditions: plain residues with an end cap or a label only (N-terminal biotin on a linker: ado-ado)

pKd	Binder
below the threshold	B1
4.55	B2
5.89	B3

biological target: HTRA2, O43464; assay: holdup assay; parameters: key: below the threshold = too weak to quantify, mostly under pKd 3.1 to 4; conditions: plain residues with an end cap or a label only (N-terminal biotin on a linker: ado-ado)
Sequence (O43464 355-458): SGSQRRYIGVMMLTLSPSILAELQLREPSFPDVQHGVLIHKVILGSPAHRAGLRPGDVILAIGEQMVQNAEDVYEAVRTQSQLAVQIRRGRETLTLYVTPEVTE

pKd	Binder
below the threshold	B1
4.46	B2
4.51	B3
